The results in this text go back to publication PMC1133794.

The data set concerns the target MyoD (UniProt P10085 1-318). Briefly: EMSA. (In general: A gel shift assay detects complexes by their altered migration in electrophoresis.)

Sequence of MyoD (P10085 whole entry): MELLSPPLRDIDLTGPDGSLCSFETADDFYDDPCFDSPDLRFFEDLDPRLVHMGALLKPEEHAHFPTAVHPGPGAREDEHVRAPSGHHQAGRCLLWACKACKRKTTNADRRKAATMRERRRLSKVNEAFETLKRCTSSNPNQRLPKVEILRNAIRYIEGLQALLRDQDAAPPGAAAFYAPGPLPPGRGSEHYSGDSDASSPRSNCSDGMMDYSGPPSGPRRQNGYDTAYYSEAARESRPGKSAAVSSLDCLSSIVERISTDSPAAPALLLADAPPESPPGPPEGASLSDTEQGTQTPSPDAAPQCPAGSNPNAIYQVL

B1: G'2 bimolecular tetraplex integrin 26/integrin 29 (structured_DNA)
DNA 1: CATGGGGGCGGGAAGGGGCGGGGTCT
DNA 2: AAAGGTGGGGCGGCAGGGCGCAAGGCAAT
Turning to B1, the binding result is “binds”.
